Laboratory results from US20120135923A1 (IPSEN PHARMA S A S, published 2012).
Several values for one entry are separate records, joined by “and”; a condition that tells them apart may be missing. Identical values can stand only once. Bridge positions count the residues as written; N and C are the ends. Square brackets hold non-standard residues; d marks the D form. Ends that are not written are not given here. 1Nal = N[C@@H](Cc1cccc2ccccc12)C(=O)O; 2Nal = N[C@@H](Cc1ccc2ccccc2c1)C(=O)O; d2Nal = N[C@H](Cc1ccc2ccccc2c1)C(=O)O; Bta = N[C@@H](Cc1csc2ccccc12)C(=O)O; hCha = N[C@@H](CCC1CCCCC1)C(=O)O; Cha = N[C@@H](CC1CCCCC1)C(=O)O; dChg = N[C@@H](C(=O)O)C1CCCCC1; dTle = CC(C)(C)[C@@H](N)C(=O)O; Chg = N[C@H](C(=O)O)C1CCCCC1; Nle = CCCC[C@H](N)C(=O)O; Ac5c = NC1(C(=O)O)CCCC1; Apc = not defined here; Ava = NCCCCC(=O)O; GABA = NCCCC(=O)O; βAla = NCCC(=O)O

B1: Ac-c(Cys-Glu-His-D-2-Nal-Arg-2-Nal-Ala-Cys)-Pro-Pro-Lys-Asp-β-[…]NH2 (peptide)
peptide: Ac-CEH[d2Nal]R[2Nal]ACPPKD[βAla]RRRRRRQRRR-NH2
modifications: disulfide 1-8
B2: Ac-c(Cys-Glu-His-D-2-Nal-Arg-1-Nal-Ala-Cys)-Pro-Pro-Lys-Asp-β-[…]NH2 (peptide)
peptide: Ac-CEH[d2Nal]R[1Nal]ACPPKD[βAla]RKRRRQRRR-NH2
modifications: disulfide 1-8
B3: Ac-c(Cys-Glu-His-D-2-Nal-Arg-1-Nal-Ala-Cys)-Pro-Pro-Lys-Asp-β-[…]NH2 (peptide)
peptide: Ac-CEH[d2Nal]R[1Nal]ACPPKD[βAla]YGRKRRRQRRR-NH2
modifications: disulfide 1-8
B4: Ac-c(Cys-Glu-His-D-2-Nal-Arg-Bal-Ala-Cys)-Pro-Pro-Lys-Asp-β-[…]NH2 (peptide)
peptide: Ac-CEH[d2Nal]R[Bta]ACPPKD[βAla]YGRKRRRQRRR-NH2
modifications: disulfide 1-8
B5: c[Hydantoin(C(O)-(Asp-A5c))-D-2-Nal-Arg-Trp-Lys]-NH2 (peptide)
peptide: D[Ac5c][d2Nal]RWK-NH2
modifications: lactam 1-6; also: hydantoin ring: N-terminal N of Asp1 and backbone N of residue 2 bridged by one C(O), bridge at N via C(O), other end not in the chain
B6: c[Hydantoin(C(O)-(Asp-Apc))-D-2-Nal-Arg-Trp-Lys]-NH2 (peptide)
peptide: D[Apc][d2Nal]RWK-NH2
modifications: lactam 1-6; reading uncertain; also: hydantoin ring: N-terminal N of Asp1 and backbone N of residue 2 bridged by one C(O), bridge at N via C(O), other end not in the chain, printed as c[Hydantoin(C(O)-(Asp-Apc))-D-2-Nal-Arg-Trp-Lys]-NH2
B7: Ac-Nle-c(Cys-D-Ala-His-D-Phe-Arg-Trp-Cys)-Doc-Tyr-Gly-Arg-Lys-Lys-Arg-Arg-Gln-Arg-Arg-Arg-NH2 (peptide)
peptide: XCAHFRWCXYGRKKRRQRRR
modifications: N-terminal Ac; Nle at 1; D-Ala at 3; D-Phe at 5; Doc at 9; disulfide Cys2-Cys8; C-terminal NH2
B8: Ac-c(Cys-Glu-His-D-2-Nal-Arg-2-Nal-Ala-Cys)-Pro-Pro-Lys-Asp-β-[…]NH2 (peptide)
peptide: Ac-CEH[d2Nal]R[2Nal]ACPPKD[βAla]YGRRKRRQRRR-NH2
modifications: disulfide 1-8
B9: Ac-hCha-c(Asp-His-D-Phe-Arg-Trp-Gaba-Lys)-NH2 (peptide)
peptide: Ac-[hCha]DH[dF]RW[GABA]K-NH2
modifications: lactam 2-8
SMILES: CC(=O)N[C@@H](CCC1CCCCC1)C(=O)N[C@H]1CC(=O)NCCCC[C@@H](C(N)=O)NC(=O)CCCNC(=O)[C@H](Cc2c[nH]c3ccccc23)NC(=O)[C@H](CCCNC(=N)N)NC(=O)[C@@H](Cc2ccccc2)NC(=O)[C@H](Cc2c[nH]cn2)NC1=O
B10: Ac-Arg-c(Asp-His-D-Phe-Arg-Trp-Ala-Lys)-NH2 (peptide)
peptide: Ac-RDH[dF]RWAK-NH2
modifications: lactam 2-8
B11: Ac-D-Chg-c(Asp-His-D-Phe-Arg-Trp-Gaba-Lys)-NH2 (peptide)
peptide: Ac-[dChg]DH[dF]RW[GABA]K-NH2
modifications: lactam 2-8
B12: Ac-Chg-c(Asp-His-D-Phe-Arg-Trp-Gaba-Lys)-NH2 (peptide)
peptide: Ac-[Chg]DH[dF]RW[GABA]K-NH2
modifications: lactam 2-8
B13: Ac-Nle-c(Asp-His-D-Phe-Arg-Trp-Apn-Lys)-NH2 (peptide)
peptide: Ac-[Nle]DH[dF]RW[Ava]K-NH2
modifications: lactam 2-8
B14: Ac-Nle-c(Cys-D-Ala-His-D-Phe-Arg-Trp-Apn-Cys)-NH2 (peptide)
peptide: Ac-[Nle]C[dA]H[dF]RW[Ava]C-NH2
modifications: disulfide 2-9
SMILES: CCCC[C@H](NC(C)=O)C(=O)N[C@H]1CSSC[C@@H](C(N)=O)NC(=O)CCCCNC(=O)[C@H](Cc2c[nH]c3ccccc23)NC(=O)[C@H](CCCNC(=N)N)NC(=O)[C@@H](Cc2ccccc2)NC(=O)[C@H](Cc2c[nH]cn2)NC(=O)[C@@H](C)NC1=O
B15: Ac-Cha-c(Asp-His-D-Phe-Arg-Trp-Gaba-Lys)-NH2 (peptide)
peptide: Ac-[Cha]DH[dF]RW[GABA]K-NH2
modifications: lactam 2-8
SMILES: CC(=O)N[C@@H](CC1CCCCC1)C(=O)N[C@H]1CC(=O)NCCCC[C@@H](C(N)=O)NC(=O)CCCNC(=O)[C@H](Cc2c[nH]c3ccccc23)NC(=O)[C@H](CCCNC(=N)N)NC(=O)[C@@H](Cc2ccccc2)NC(=O)[C@H](Cc2c[nH]cn2)NC1=O
B16: Ac-Nle-c(Cys-D-Ala-His-D-Phe-Arg-Trp-β-Ala-Cys)-NH2 (peptide)
peptide: Ac-[Nle]C[dA]H[dF]RW[βAla]C-NH2
modifications: disulfide 2-9
B17: Ac-Nle-c(Asp-His-D-Phe-Arg-Trp-Gaba-Lys)-NH2 (peptide)
peptide: Ac-[Nle]DH[dF]RW[GABA]K-NH2
modifications: lactam 2-8
B18: Ac-Nle-c(Cys-D-Tle-His-D-Phe-Arg-Trp-Cys)-NH2 (peptide)
peptide: Ac-[Nle]C[dTle]H[dF]RWC-NH2
modifications: disulfide 2-8
B19: Ac-Nle-c(Asp-His-D-Phe-Arg-Trp-β-Ala-Lys)-NH2 (peptide)
peptide: Ac-[Nle]DH[dF]RW[βAla]K-NH2
modifications: lactam 2-8
SMILES: CCCC[C@H](NC(C)=O)C(=O)N[C@H]1CC(=O)NCCCC[C@@H](C(N)=O)NC(=O)CCNC(=O)[C@H](Cc2c[nH]c3ccccc23)NC(=O)[C@H](CCCNC(=N)N)NC(=O)[C@@H](Cc2ccccc2)NC(=O)[C@H](Cc2c[nH]cn2)NC1=O
B20: Ac-Nle-c(Cys-D-Ala-His-D-Phe-Arg-Trp-Gaba-Cys)-NH2 (peptide)
peptide: Ac-[Nle]C[dA]H[dF]RW[GABA]C-NH2
modifications: disulfide 2-9

target: T1, human melanocortin receptor subtype 1 (hMC1-R) (human, UniProt Q01726 1-317); assay: [125I]-NDP-α-MSH competition, membranes
T1 construct: whole, on cells; membranes of CHO-K1 cells
T1 sequence (Q01726 whole entry): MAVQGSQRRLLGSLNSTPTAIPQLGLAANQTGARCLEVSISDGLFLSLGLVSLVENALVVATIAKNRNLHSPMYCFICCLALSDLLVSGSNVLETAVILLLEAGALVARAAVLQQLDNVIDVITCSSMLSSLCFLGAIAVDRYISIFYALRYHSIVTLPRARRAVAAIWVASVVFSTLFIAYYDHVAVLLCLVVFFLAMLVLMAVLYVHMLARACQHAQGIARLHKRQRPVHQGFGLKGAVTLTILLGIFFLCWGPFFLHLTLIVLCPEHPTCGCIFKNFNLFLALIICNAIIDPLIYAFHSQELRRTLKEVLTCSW
Procedure: (§1) Cellular membranes used for the in vitro receptor binding assays were obtained from transgenic CHO-K1 cells stably expressing hMC-R receptor subtypes 1, 3, 4 or 5. […] The pellets were resuspended in the same buffer and centrifuged at 50,000 g for 10 minutes at approximately 4° C. The washed pellets containing the cellular membranes were stored at approximately −80° C.
(§2) Competitive inhibition of [¹²⁵I](Tyr²)-(Nle⁴-D-Phe⁷)α-MSH ([¹²⁵I]-NDP-α-MSH, Amersham Biosciences®) binding was carried out in polypropylene 96 well plates. Cell membranes (1-10 μg protein/well) prepared as described above were incubated in 50 mM Tris-HCl at pH 7.4 containing 0.2% bovine serum albumin (BSA), 5 mM MgCl₂, 1 mM CaCl₂ and 0.1 mg/mL bacitracin, with increasing concentrations of the test compound and 0.1-0.3 nM […] for approximately 90-120 minutes at approximately 37° C. Bound [¹²⁵I]-NDP-α-MSH ligand was separated from free [¹²⁵I]-NDP-α-MSH by filtration through GF/C glass fiber filter plates (Unifilter®; Packard) presoaked with 0.1% (w/v) polyethylenimine (PEI), using a Packard Filtermate® harvester. Filters were washed three times with 50 mM Tris-HCl at pH 7.4 at a temperature of approximately 0-4° C. and then assayed for radioactivity using a Packard Topcount® scintillation counter. Binding data were analyzed by computer-assisted non-linear regression analysis (XL fit; IDBS).

Binder | Ki [nM]
B1 | 3.65
B2 | 2.12
B3 | 1.5
B4 | 2.14
B5 | 9940
B6 | 1280

target: T2, human melanocortin receptor subtype 3 (hMC3-R) (human, UniProt P41968 1-323); assay: [125I]-NDP-α-MSH competition, membranes
T2 construct: whole, on cells; membranes of CHO-K1 cells
T2 sequence (P41968 whole entry): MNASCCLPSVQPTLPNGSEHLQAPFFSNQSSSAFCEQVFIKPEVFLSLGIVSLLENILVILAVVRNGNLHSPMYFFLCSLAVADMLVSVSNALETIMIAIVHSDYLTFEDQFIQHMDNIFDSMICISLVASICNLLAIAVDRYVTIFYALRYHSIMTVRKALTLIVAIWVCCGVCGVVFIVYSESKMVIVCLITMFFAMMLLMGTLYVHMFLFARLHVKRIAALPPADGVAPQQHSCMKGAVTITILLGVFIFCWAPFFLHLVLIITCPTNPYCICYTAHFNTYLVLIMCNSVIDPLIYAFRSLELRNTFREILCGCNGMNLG
Procedure: as §1, §2

Binder | Ki [nM]
B7 | 0.699
B1 | 2.26
B2 | 3.99
B3 | 1.61
B8 | 1.12
B4 | 1.12
B5 | 2390
B6 | 2760

target: T3, human melanocortin receptor subtype 4 (hMC4-R) (human, UniProt P32245 1-332); assay: [125I]-NDP-α-MSH competition, membranes
T3 construct: whole, on cells; membranes of CHO-K1 cells
T3 sequence (P32245 whole entry): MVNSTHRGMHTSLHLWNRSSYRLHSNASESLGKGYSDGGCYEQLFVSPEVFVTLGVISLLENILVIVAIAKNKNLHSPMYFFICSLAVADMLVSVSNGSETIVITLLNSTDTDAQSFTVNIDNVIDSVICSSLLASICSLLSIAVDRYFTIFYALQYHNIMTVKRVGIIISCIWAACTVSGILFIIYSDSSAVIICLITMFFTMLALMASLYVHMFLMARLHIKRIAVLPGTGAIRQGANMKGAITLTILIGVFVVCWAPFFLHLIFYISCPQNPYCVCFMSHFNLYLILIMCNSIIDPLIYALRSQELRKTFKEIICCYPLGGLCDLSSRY
Procedure: as §1, §2

Binder | Ki [nM]
B7 | 0.596
B1 | 0.261
B3 | 0.301
B8 | 0.223
B4 | 0.624
B5 | 44.6
B6 | 266

target: T4, human melanocortin receptor subtype 5 (hMC5-R) (human, UniProt P33032 1-325); assay: [125I]-NDP-α-MSH competition, membranes
T4 construct: whole, on cells; membranes of CHO-K1 cells
T4 sequence (P33032 whole entry): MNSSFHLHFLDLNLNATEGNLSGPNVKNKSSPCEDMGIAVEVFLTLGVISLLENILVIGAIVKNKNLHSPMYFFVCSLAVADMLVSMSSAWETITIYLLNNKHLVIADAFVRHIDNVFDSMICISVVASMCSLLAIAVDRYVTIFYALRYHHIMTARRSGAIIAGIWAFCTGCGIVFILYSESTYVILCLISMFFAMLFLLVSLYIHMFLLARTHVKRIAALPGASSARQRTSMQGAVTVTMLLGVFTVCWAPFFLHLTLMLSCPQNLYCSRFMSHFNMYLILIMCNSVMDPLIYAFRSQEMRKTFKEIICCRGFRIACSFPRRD
Procedure: as §1, §2

Binder | Ki [nM]
B2 | 27.5
B8 | 15.3

target: T5, hMC1-R (human, UniProt Q01726 1-317); assay: competition with [125I]-NDP-α-MSH, CHO-K1 membranes
T5 construct: whole, on cells; Assayed as membranes of CHO-K1 cells expressing the receptor; also called hMC-R receptor subtype 1; melanocyte-specific receptor (MC1-R)
T5 sequence (Q01726 whole entry): as the sequence (Q01726 whole entry) above
Procedure: as §1, §2

Binder | Ki
B9 | 0.721 nM
B10 | 0.68 nM
B11 | 0.227 nM
B12 | 0.884 nM
B13 | 0.999 nM
B14 | 1.1 nM
B15 | 0.106 nM
B16 | 0.995 nM and 1 nM
B17 | 0.0506 nM
B18 | 12 nM
B19 | 0.0996 nM
B20 | 0.848 nM and 0.536 nM

target: T6, hMC3-R (human, UniProt P41968 1-323); assay: as above
T6 construct: whole, on cells; Assayed as membranes of CHO-K1 cells expressing the receptor; also called hMC-R receptor subtype 3; melacortin-3 (MC3-R)
T6 sequence (P41968 whole entry): as the sequence (P41968 whole entry) above
Procedure: as §1, §2

Binder | Ki
B9 | 93.5 nM
B10 | 20.7 nM
B11 | 14.5 nM
B12 | 223 nM
B13 | 300 nM
B14 | 228 nM
B15 | 11.8 nM
B16 | 287 nM and 227 nM
B17 | 9.89 nM
B18 | 85.8 nM
B19 | 9320 nM
B20 | 184 nM and 169 nM

target: T7, hMC4-R (human, UniProt P32245 1-332); assay: as above
T7 construct: whole, on cells; Assayed as membranes of CHO-K1 cells expressing the receptor; also called hMC-R receptor subtype 4; melanocortin-4 (MC4-R)
T7 sequence (P32245 whole entry): as the sequence (P32245 whole entry) above
Procedure: as §1, §2

Binder | Ki
B9 | 56 nM
B10 | 1.01 nM
B11 | 2.99 nM
B12 | 22.5 nM
B13 | 11.1 nM
B14 | 7.58 nM
B15 | 1.49 nM
B16 | 5.55 nM
B17 | 1.04 nM
B18 | 11.2 nM
B19 | 0.617 nM
B20 | 3.76 nM and 3.12 nM

target: T8, hMC5-R (human, UniProt P33032 1-325); assay: as above
T8 construct: whole, on cells; Assayed as membranes of CHO-K1 cells expressing the receptor; also called hMC-R receptor subtype 5; melanocortin-5 receptor (MC5-R)
T8 sequence (P33032 whole entry): as the sequence (P33032 whole entry) above
Procedure: as §1, §2

Binder | Ki
B9 | 747 nM
B10 | 783 nM
B11 | 164 nM
B12 | 609 nM
B13 | 431 nM
B14 | 859 nM
B15 | 110 nM
B16 | 766 nM and 496 nM
B17 | 16.3 nM
B18 | 40 nM
B19 | 10.9 nM
B20 | 956 nM and 358 nM
